Measured values published in patent US20170008928A1, “NOVEL PEPTIDES AND PEPTIDE DERIVATIVES AND USES THEREOF” (Novo Nordisk A/S, priority 2015, published 2017).
Starred links: 1 amine or outer side, 2 acyl side, 3 side chain; linkers in the order of their positions; H or OH if unused. Non-standard residues stand in square brackets, D forms with d. No end group written: not given here. *: point of attachment. Phe(4-CH2SO3H) = N[C@@H](Cc1ccc(CS(=O)(=O)O)cc1)C(=O)O; C20 diacid = O=C(O)CCCCCCCCCCCCCCCCCCC(=O)*; sY = N[C@@H](Cc1ccc(OS(=O)(=O)O)cc1)C(=O)O; C18 diacid = O=C(O)CCCCCCCCCCCCCCCCC(=O)*; C16 diacid = O=C(O)CCCCCCCCCCCCCCC(=O)*; γGlu = O=C(O)[C@H](CCC(=O)[*:2])N[*:1]; C14 diacid = O=C(O)CCCCCCCCCCCCC(=O)*; βAsp = O=C(O)[C@H](CC(=O)[*:2])N[*:1]; Met(O2) = CS(=O)(=O)CC[C@H](N)C(=O)O; NMeF = CN[C@@H](Cc1ccccc1)C(=O)O; dNMeD = CN[C@H](CC(=O)O)C(=O)O; Nle = CCCC[C@H](N)C(=O)O; AEEA = NCCOCCOCC(=O)O

What was measured:
[1] = target: T1, human cholecystokinin-2 receptor (human, UniProt P32239 1-447); experiment: cell-based or functional assay
T1 sequence (looked up): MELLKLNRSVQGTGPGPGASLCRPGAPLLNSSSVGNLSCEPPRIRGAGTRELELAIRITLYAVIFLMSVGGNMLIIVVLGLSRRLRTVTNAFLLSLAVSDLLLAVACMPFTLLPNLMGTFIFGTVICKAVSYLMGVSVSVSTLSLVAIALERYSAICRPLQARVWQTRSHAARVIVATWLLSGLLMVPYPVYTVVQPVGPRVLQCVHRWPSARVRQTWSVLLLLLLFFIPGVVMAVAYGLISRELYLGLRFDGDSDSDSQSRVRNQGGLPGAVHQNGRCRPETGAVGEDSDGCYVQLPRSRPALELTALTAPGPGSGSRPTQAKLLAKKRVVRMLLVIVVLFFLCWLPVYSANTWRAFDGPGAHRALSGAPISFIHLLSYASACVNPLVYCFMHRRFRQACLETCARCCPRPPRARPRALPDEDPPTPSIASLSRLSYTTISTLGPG

[2] = target: T2, human cholecystokinin-1 receptor (human, UniProt P32238 1-428); experiment: cell-based or functional assay
T2 sequence (looked up): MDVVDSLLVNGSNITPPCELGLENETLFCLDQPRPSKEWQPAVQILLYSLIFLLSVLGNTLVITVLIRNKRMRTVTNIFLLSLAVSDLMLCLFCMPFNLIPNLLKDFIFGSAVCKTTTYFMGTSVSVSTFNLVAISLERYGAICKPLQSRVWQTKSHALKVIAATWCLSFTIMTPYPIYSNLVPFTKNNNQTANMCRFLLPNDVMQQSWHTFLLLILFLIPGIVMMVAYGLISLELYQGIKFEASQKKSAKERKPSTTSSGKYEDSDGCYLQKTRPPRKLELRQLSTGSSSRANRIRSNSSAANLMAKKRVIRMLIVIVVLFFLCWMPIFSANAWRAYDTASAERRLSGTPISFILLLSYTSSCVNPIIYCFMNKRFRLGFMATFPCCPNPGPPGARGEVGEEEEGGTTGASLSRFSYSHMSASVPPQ

[3] = target: T1, human cholecystokinin-2 receptor; experiment: SPA competition vs [125I]-CCK-8s, membranes
Experimental: (§1) CCK receptor binding assays were performed in 96-well Optiplates (Cat #6005290, PerkinElmer, Waltham, Mass., USA) in a total volume of 200 μl per well.
(§2) The plates were sealed and incubated in the dark at +22° C. for 2 hours on a IKA MTS plate shaker (IKA-Werke D-79219 Staufen) set at 300 rpm and thereafter centrifuged at 1500 rpm for 10 minutes in a Heraeus Multifuge 3s centrifuge. SPA bead light emission was measured in a TopCount NXT (PerkinElmer) for 2 min/well after a delay of 60 min.

[4] = target: T2, human cholecystokinin-1 receptor; experiment: SPA competition vs [125I]-CCK-8s, membranes
Experimental: as §1, §2

B1: 17-Carboxyheptadecanoyl-Gly-Ser-Ser-Gly-Ser-Ser-Asp-sTyr-Leu-Gly-Trp-Nle-DMeAsp-MePhe-amide (peptide)
peptide: {C18 diacid}-GSSGSSD[sY]LGW[Nle][dNMeD][NMeF]-NH2
SMILES: CCCC[C@H](NC(=O)[C@H](Cc1c[nH]c2ccccc12)NC(=O)CNC(=O)[C@H](CC(C)C)NC(=O)[C@H](Cc1ccc(OS(=O)(=O)O)cc1)NC(=O)[C@H](CC(=O)O)NC(=O)[C@H](CO)NC(=O)[C@H](CO)NC(=O)CNC(=O)[C@H](CO)NC(=O)[C@H](CO)NC(=O)CNC(=O)CCCCCCCCCCCCCCCCC(=O)O)C(=O)N(C)[C@H](CC(=O)O)C(=O)N(C)[C@@H](Cc1ccccc1)C(N)=O
notes: X = Nle or Nal; The Gly-Ser-Ser-Gly-Ser-Ser linker is written as part of the chain
EC50 (CCK-2R) [1]: 17 nM
EC50 (CCK-1R) [2]: 0.61 nM
IC50 [3]: 370 nM

B2: bAsp-Phe(4-sulfomethyl)-Nle-Gly-Trp-Nle-DMeAsp-MePhe-amide (peptide)
peptide: [βAsp][Phe(4-CH2SO3H)][Nle]GW[Nle][dNMeD][NMeF]-NH2
modifications: N-terminus assumed
SMILES: CCCC[C@H](NC(=O)[C@H](Cc1ccc(CS(=O)(=O)O)cc1)NC(=O)C[C@H](N)C(=O)O)C(=O)NCC(=O)N[C@@H](Cc1c[nH]c2ccccc12)C(=O)N[C@@H](CCCC)C(=O)N(C)[C@H](CC(=O)O)C(=O)N(C)[C@@H](Cc1ccccc1)C(N)=O
notes: X = Nle or Nal
EC50 (CCK-2R) [1]: > 1000 nM
EC50 (CCK-1R) [2]: 0.19 nM
IC50 [3]: 2900 nM

D[sY]LGW[Met(O2)][dNMeD][NMeF]-NH2 [Asp-sTyr-Leu-Gly-Trp-Met(O2)-DMeAsp-MePhe-amide]
EC50 (CCK-2R) [1]: > 1000 nM
EC50 (CCK-1R) [2]: 0.37 nM

E[sY]LGWQ[dNMeD][NMeF]-NH2 [Glu-sTyr-Leu-Gly-Trp-Gln-DMeAsp-MePhe-amide]
EC50 (CCK-2R) [1]: > 1000 nM
IC50 [4]: 0.085 nM

B3: 2-[2-[2-[[2-[2-[2-[[(4S)-4-Carboxy-4-(13-carboxytridecanoylamino)butanoyl]amino]ethoxy]ethoxy]acetyl]amino]ethoxy]ethoxy]acetyl-Glu-sTyr-Leu-Gly-Trp-Nle-DMeAsp- … (peptide)
peptide: {C14 diacid-γGlu-AEEA-AEEA}-E[sY]LGW[Nle][dNMeD][NMeF]-NH2
SMILES: CCCC[C@H](NC(=O)[C@H](Cc1c[nH]c2ccccc12)NC(=O)CNC(=O)[C@H](CC(C)C)NC(=O)[C@H](Cc1ccc(OS(=O)(=O)O)cc1)NC(=O)[C@H](CCC(=O)O)NC(=O)COCCOCCNC(=O)COCCOCCNC(=O)CC[C@H](NC(=O)CCCCCCCCCCCCC(=O)O)C(=O)O)C(=O)N(C)[C@H](CC(=O)O)C(=O)N(C)[C@@H](Cc1ccccc1)C(N)=O
notes: X = Nle or Nal
EC50 (CCK-2R) [1]: 150 nM
IC50 [3]: 1200 nM

{C18 diacid-γGlu-AEEA-AEEA}-[dE][sY]LGW[Nle][dNMeD][NMeF]-NH2 (X = Nle or Nal)
EC50 (CCK-2R) [1]: 46 nM
IC50 [3]: 700 nM

{C18 diacid-γGlu-AEEA-AEEA}-D[Phe(4-CH2SO3H)]LGW[Nle][dNMeD][NMeF]-NH2 (X = Nle or Nal)
EC50 (CCK-2R) [1]: 81 nM
IC50 [3]: 380 nM

B4: 2-[2-[2-[[2-[2-[2-[[(4S)-4-Carboxy-4-(17-carboxyheptadecanoylamino)butanoyl]amino]ethoxy]ethoxy]acetyl]amino]ethoxy]ethoxy]acetyl-Glu-sTyr-Leu-Gly-Trp-Nle-DMeAs … (peptide)
peptide: {C18 diacid-γGlu-AEEA-AEEA}-E[sY]LGW[Nle][dNMeD]F-NH2
SMILES: CCCC[C@H](NC(=O)[C@H](Cc1c[nH]c2ccccc12)NC(=O)CNC(=O)[C@H](CC(C)C)NC(=O)[C@H](Cc1ccc(OS(=O)(=O)O)cc1)NC(=O)[C@H](CCC(=O)O)NC(=O)COCCOCCNC(=O)COCCOCCNC(=O)CC[C@H](NC(=O)CCCCCCCCCCCCCCCCC(=O)O)C(=O)O)C(=O)N(C)[C@H](CC(=O)O)C(=O)N[C@@H](Cc1ccccc1)C(N)=O
notes: X = Nle or Nal
EC50 (CCK-2R) [1]: 94 nM
EC50 (CCK-1R) [2]: 0.37 nM
IC50 [3]: 480 nM

{C18 diacid-γGlu-AEEA-AEEA}-D[sY]IGW[Nle][dNMeD][NMeF]-NH2 (X = Nle or Nal)
EC50 (CCK-2R) [1]: 210 nM
IC50 [3]: 340 nM

{C18 diacid-γGlu-AEEA-AEEA}-E[sY]LGW[Nle][dNMeD][NMeF]-NH2 (X = Nle or Nal)
EC50 (CCK-2R) [1]: 62 nM
IC50 [3]: 2400 nM

D[sY]RGW[Nle][dNMeD][NMeF]-NH2 (X = Nle or Nal) [Asp-sTyr-Arg-Gly-Trp-Nle-DMeAsp-MePhe-amide]
EC50 (CCK-2R) [1]: 910 nM
IC50 [3]: 1500 nM

B5: 2-[2-[2-[[2-[2-[2-[[(4S)-4-Carboxy-4-(19-carboxynonadecanoylamino)butanoyl]amino]ethoxy]ethoxy]acetyl]amino]ethoxy]ethoxy]acetyl-Glu-sTyr-Leu-Gly-Trp-Nle-DMeAsp … (peptide)
peptide: {C20 diacid-γGlu-AEEA-AEEA}-E[sY]LGW[Nle][dNMeD][NMeF]-NH2
SMILES: CCCC[C@H](NC(=O)[C@H](Cc1c[nH]c2ccccc12)NC(=O)CNC(=O)[C@H](CC(C)C)NC(=O)[C@H](Cc1ccc(OS(=O)(=O)O)cc1)NC(=O)[C@H](CCC(=O)O)NC(=O)COCCOCCNC(=O)COCCOCCNC(=O)CC[C@H](NC(=O)CCCCCCCCCCCCCCCCCCC(=O)O)C(=O)O)C(=O)N(C)[C@H](CC(=O)O)C(=O)N(C)[C@@H](Cc1ccccc1)C(N)=O
notes: X = Nle or Nal
EC50 (CCK-2R) [1]: 32 nM
IC50 [3]: 430 nM

{C18 diacid-γGlu-AEEA-AEEA}-D[sY]KGW[Nle][dNMeD][NMeF]-NH2 (X = Nle or Nal)
EC50 (CCK-2R) [1]: 310 nM
EC50 (CCK-1R) [2]: 0.36 nM
IC50 [4]: 0.099 nM

{C16 diacid-γGlu-AEEA-AEEA}-E[sY]LGW[Nle][dNMeD][NMeF]-NH2 (X = Nle or Nal)
EC50 (CCK-2R) [1]: 110 nM
IC50 [3]: 590 nM

{C18 diacid-γGlu-AEEA-AEEA}-D[sY]HGW[Nle][dNMeD][NMeF]-NH2 (X = Nle or Nal)
EC50 (CCK-2R) [1]: > 1000 nM
IC50 [3]: 9000 nM

{C18 diacid-γGlu-AEEA-AEEA}-D[sY]PGW[Nle][dNMeD][NMeF]-NH2 (X = Nle or Nal)
EC50 (CCK-2R) [1]: 300 nM
IC50 [3]: 5200 nM

B6: sTyr-Nle-Gly-Trp-Nle-DMeAsp-MePhe-amide (peptide)
peptide: [sY][Nle]GW[Nle][dNMeD][NMeF]-NH2
modifications: N-terminus assumed
SMILES: CCCC[C@H](NC(=O)[C@@H](N)Cc1ccc(OS(=O)(=O)O)cc1)C(=O)NCC(=O)N[C@@H](Cc1c[nH]c2ccccc12)C(=O)N[C@@H](CCCC)C(=O)N(C)[C@H](CC(=O)O)C(=O)N(C)[C@@H](Cc1ccccc1)C(N)=O
notes: X = Nle or Nal
EC50 (CCK-2R) [1]: > 1000 nM
EC50 (CCK-1R) [2]: 0.33 nM
IC50 [4]: 0.06 nM

{C18 diacid-γGlu-AEEA-AEEA}-D[Phe(4-CH2SO3H)][Nle]GW[Nle][dNMeD][NMeF]-NH2 (X = Nle or Nal)
IC50 [4]: 0.26 nM

EGPWLEEEEEAYGWMDF (N-terminal pyroglutamic acid (pE, Pyr); C-terminal amide; Tyr non-sulfated)
EC50 (CCK-1R) [2]: 530 nM
IC50 [4]: 340 nM

B7: 2-[2-[2-[[2-[2-[2-[[(4S)-4-Carboxy-4-(17-carboxyheptadecanoylamino)butanoyl]amino]ethoxy]ethoxy]acetyl]amino]ethoxy]ethoxy]acetyl-bAsp-Phe(4-sulfomethyl)-Nle-Gl … (peptide)
peptide: {C18 diacid-γGlu-AEEA-AEEA}-[βAsp][Phe(4-CH2SO3H)][Nle]GW[Nle][dNMeD][NMeF]-NH2
SMILES: CCCC[C@H](NC(=O)[C@H](Cc1ccc(CS(=O)(=O)O)cc1)NC(=O)C[C@H](NC(=O)COCCOCCNC(=O)COCCOCCNC(=O)CC[C@H](NC(=O)CCCCCCCCCCCCCCCCC(=O)O)C(=O)O)C(=O)O)C(=O)NCC(=O)N[C@@H](Cc1c[nH]c2ccccc12)C(=O)N[C@@H](CCCC)C(=O)N(C)[C@H](CC(=O)O)C(=O)N(C)[C@@H](Cc1ccccc1)C(N)=O
notes: X = Nle or Nal
EC50 (CCK-1R) [2]: 0.36 nM
IC50 [4]: 0.063 nM

B8: Asp-Phe(4-sulfomethyl)-Nle-Gly-Trp-Nle-DMeAsp-MePhe-amide (peptide)
peptide: D[Phe(4-CH2SO3H)][Nle]GW[Nle][dNMeD][NMeF]-NH2
modifications: N-terminus assumed
SMILES: CCCC[C@H](NC(=O)[C@H](Cc1ccc(CS(=O)(=O)O)cc1)NC(=O)[C@@H](N)CC(=O)O)C(=O)NCC(=O)N[C@@H](Cc1c[nH]c2ccccc12)C(=O)N[C@@H](CCCC)C(=O)N(C)[C@H](CC(=O)O)C(=O)N(C)[C@@H](Cc1ccccc1)C(N)=O
notes: X = Nle or Nal
EC50 (CCK-2R) [1]: > 1000 nM
EC50 (CCK-1R) [2]: 0.25 nM
IC50 [4]: 0.046 nM

{C18 diacid-γGlu-AEEA-AEEA}-[dD][Phe(4-CH2SO3H)][Nle]GW[Nle][dNMeD][NMeF]-NH2 (X = Nle or Nal)
EC50 (CCK-1R) [2]: 0.37 nM
IC50 [4]: 0.072 nM
